Results taken from the DeepSol protein solubility set.

Test: soluble on expression in E. coli; label from the status in PepcDB or PDB records

Sequence	soluble on expression in E. coli
MNVYRNQLIQLLPEITELKNLTTLDLSLNKLTQLPPEIGELNNLKTLYSSSNQLTQLPLEITKLKNLTELYLSSNLMIRLPLEITELKNLTTLNVYRNQLIQLPSKITELKNLKKLDLSRNQLAQLPPEIAELKNLTTLDLSRNQLAQLPPEIAELKNLTTLDLFENPLISLEHHHHHH	not soluble
MGSDKIHHHHHHMKPGSHLFSPISFQESTPLYRQLYERVRRAISVGLLFPGDRLPSARMLAKELGVARGTIEQAYSLLIAEGYLQAHGQAGTRVNPDLPSASLPVAEAPVSPSAPDAEQQILWRPSQLLPFQMGVPAFDAFPRKLWARLGARYLRSMQLPDLDYPAPYGLPALRNAIASYLQVSRGIDCTANQVFITSGWRANLQLATLALLKSGQRVWVEDPGYPPTRQLLSQSGLCPIAVSVDREGINVERGIAQANDASMAVVTPAHQSPLSMSLSLPRRQALLQWATAQNAWIMEDDYDGEYRYISRPLPALASLDRHGRVLYAGTFSKVLFPGIRLAYLVVPQSQVAAFEHINRIFFASASPTMTQSIVASFITEGHFARHIQRTRRLYAERRTATITVLQGILGNRIRIDSQPGGMHLVLRLPDKFSDRQLADRLLAQGIAVQPLSRWAVSGSGDNALLVSFTNCTTVMESERLAALILAECEQHGNSLA	not soluble
MGSDKIHHHHHHMKLPANQEKNQPVPVVKPSSTLEEINQNAAGIDLGSGEHWVCVPPDRADKNVRRFGCFTPDLIAMADWLKECRINTVAMEATGVYWIPVFQVLEAKGFEVKLVNAHHVKTVPGRKTDVLDCQWLQKLHTYGLLSGSFRPEDQVCVLRSYIRQRDTLIKSASAHIQRMQKALIQMNLHLHKVISDVTGLTGMKIIKAIVAGEQDPQVLASLKDPHIKSSTADIAASLTGDYRREHLFVLQQELTLYEIYQQQIIAVDAEIEKCLAYA	not soluble
SHMPASVQLHTAVEMHHWCIPFSVDGQPAPSLRWLFNGSVLNETSFIFTEFLEPAANETVRHGCLRLNQPTHVNNGNYTLLAANPFGQASASIMAAFMDNPFEFNPEDPIPDTNSTSGDPVEKKDE	soluble
MSLGGELSLQIINKNPYKLYMDIKGFGFKTVDSIALSMGIEPDSNFRTKAAILYCLEQKEQNGDTYAFIEDIHQQVEKLLNIKINDIKNYLDKEYYYFDVLRLAKRTTWETEKDISVRLKEKINNSQKLFTNNVIHLIPEIERILRIKYDDKQKELFYKINENNILVLTGFAGTGKSSVLNGLLNLFDKKNITYKLMSPTAKAAKRMEECTGKKASTIHRALGLAEGKFLVNEKNPFAEDVIIIDETSMVDIYLFLAVLKGIKNTTKLLCLGDYGQLESISAGNVLFDMIQGGIPCVKLEKIFRQKEDSSLLNVITNIRNGDNPLKNTHKTYLELGRDCKFWLGKKEQTLSRVLLCYKECLKHFSREDIMVLCPMKKGNSGVNKLNQELQKIANSQNTEELKLKDCAYKKEDLVMHIKNDYNANIFSEDCKDTIAKGIFNGDAGKIEKIDLENQKLYVSYDSGIVEYDNSNLNELMLSYALTIHKVQGSQSKVVIVALDMSHYKMLKRSLLYTAASRCVELLIFICDPKAFSIALNNNQVTHKNTFLGELLKISEGHHHHHH	soluble
MAHHHHHHMDALIGQLENVEPDNILKSAEEFRNDKSDVKVNLSIGVCCDENGQLHIFKSVLEAEKLVQQRYKEKPYMLSNGTKQFSLLTQKLIFGENSKYLKEKKICTVQAIGGTGAICIALQLFKMLHIREICVTNKPYVNHVNMITSNGIKVKYISFFEEKLVNINYDAFLNDLRKLEDGSVLLLQVSCYNPCSTNIEEIYFDEIANIVWKKKHVIVFDIAYQGFGSSNMNDDVSLVKKFEERGISFVVCQSFSKNMSLYGERAGALHIVCKSKEERKIVANNLRVITRKFYSSPTIHTNRIVCQLLEDEKLKSEWISDLRELSERVHKNRVLFFEKMEFYQKKFDLHYDWSVYKKQRGIFSFVPMFSAIYRKLKEHHVYIIDNGRINVSGITARNVDYVAEKVCLSLAEVKRCG	not soluble
MQHQTLYQDDFVEIFEQDNEVFIKTFKPGLPPKQLNEILSSLPQIQITSFNCLNDALNIVSPSPQKFGRLKERIAITVTPDELKAFVTFNLPREELDIKNRENLIKETYQVLKKKNINFGIKKELFFGDLESGKKYLIAEGVPAVDGEDCKIRMYELEEPRPEIREDGKANYYELKLINKVKAGDWLGERIDATEGFPGKTVYGTTIHPVRGKNYPLSYDKNTVYEVVQNKKVVLYSKIDGAVHYDGNKITVSNHLEIDGDVDFKTGNIIFDGYVTIKGTVTDGFYVEATKDIEINSPLGLGNVKGIKSREGSIYIKGGISSKSFSEISARKNIYTKFVDNVKLSCGGTAHIGFYCINSMVEAKEVFIESIKGNIMGGQVKAEVKITVPVLGSPLEPRTVLILTGFDRKKLSKMLEDIVDRIDRIKEEQMDIKLYLSKQDPFKEMTSRETAEYNSKMQRMSELKAELKSLEEEKKNIARYLKTKGEGEIAITKKVYPNCSIIIKNIQTEIKEPCLATTFFAADGEIKRV	soluble
MGSDKIHHHHHHMSRTVVISQPTYLPWLGYFELIAKSDVFVFLDNVQCVKQSWHNRNRLKGNDDQLIWLTVPVKAHPLDTPLSKIQILNNPSVWRRKHLGTIQTCLGSAVYFHTIFPFIQEFINYEYEYLVDLNISLIKLFADLLGLSPNFVKASDLNPQGRRTEMLVNLCQQLDADYYYSPMGSKVYIEEEKHLFIEEDIKLNYQIWEHPCYSQRGKIFVSHLSILDTLMNIGLEATRSLIIPNKLKDI	not soluble
MKIAYLGPKGSFSHHVVQTAFPHEELQAFANITDVIKAYEQGLVNYSVVPVENSIEGSVHETLDYLFHQAHIQAVAEIVQPIHQQLMVVPGHTKIEKIFSHPQALAQGKKFIDEQYPEAQIEVTASTAYAARFISEHPDQPFAAVAPRSSAEEYGLELIAEDIQEMEANFTRFWVLGAEKPSIPLQAQTEKMSLALTLPDNLPGALYKALSTFAWRGIDLTKIESCPLKTALGEYFFIIDVDYTDKDLVHFAQKELEAIGIQYKILGAYPIYPISDHGKERR	soluble
MDMNEEYGLTPYETREILFYKTDNGEVRVEILLYQENLWLTQAKMAELFEVQKAAISKHLKNIFTSGELQEEAVVSKMETTAADGKRYNTSYYNLDAIIAVGYRVNSKKATMFRIWANRVLKEFIIKGYVMDDARLREPENLFGKDYFEEQLERIRDIRSSERRFYQKITDIYSQCSADYDVNSPVTKEFFATVQNKLHYAVTHHTAAEIVYGRADSTKPNMGLTTWKNAPQGRIRKSDVSIAKNYLNEEEMINLNEIVTMYLDYAERQARRGNIMYMQDWVNRLDAFLQFNEEDILHDKGKVTAAIAKAFAESEFEKFRVLQDRTYQSDFDRLVANIEENSKQTK	not soluble
SDSTAGTDAVAVGGTFQFHSPDGKMEIFYDEADRQQLPDIGGDSLMEEGTQINLSDFENQVVILNAWGQWCAPCRSESDDLQIIHEELQAAGNGDTPGGTVLGINVRDYSRDIAQDFVTDNGLDYPSIYDPPFMTAASLGGVPASVIPTTIVLDKQHRPAAVFLREVTSKDVLDVALPLVDEA	soluble
MAHHHHHHMNPSLSDSKFEKAMSKLQLLEDSRTILHRMLQHAHFSFSNAQRQMDRTGLLLAWEAVPTAAGAVKPQYCIVREMKDGGNGGDAGVGAAAISDDNVDCAVWKLVNCGDSAGEDPAKWFAVAPSEALRECQQHFRGVVNACVKVIQAQEEAITAAATVPVT	not soluble
SLGRNWRSWRYAERADDLLISRGVLWREETVVPYGRMQLVEVTSGPVERHFGLASVQLHTAAAATDATIPGLDPAEAERLRDRLTELGEARSAG	soluble
MEYQLREIDESEKEITQQRKKNSVTTKNFDNLSNSNSQITEMTNEQGVIPLREKDLTINVGDNRNLKVEEFMTNFISNVFENKNALFLYCKYVLLFYGKELLNENNVESLNFEIIKGGITNILVKVEDNIHQNKYLIRLYGPKTSEIINREREKLISNILCDKNISKKIYVFFPNGRIEEFKDGYALSREDIKNKDFQKEIAENLRILHDIQLDDTIYKKLQALQNIQGNRSSFLWSTLWKYFNTLKEERQKKYSFNPKAYILKLIDFDMLESIITEIQELCCKKNSPVVLCHCDLLSSNIIKTEGSSISFIDFEYSCPMERAYDIANHFNEYAGFNCEWDLTPNRSEEYHFIKHYLKTDDEQLINQLIDEIQPFYVCSHIVWGLWALLQGLHSVIDFDFINYGMTRLTAAFSVKFRSKLEKN	not soluble
MAHHHHHHMTSVEAENQPVEDPETFVVMEENGAPRDPQVAVSALDEAAEEGAVSGGEREPAAAGDDLSNPHVFKVAAREVDEGYMSVIRGLSAFGRADEEVCRNAVDICKDIIAMEQSLFSEVPSYVTNYASMQRAKTVVLNKAVRPHWTIPTPEGPPRTWEEQRAYVDPGVPLMLPYSAERFKKEHPERALVEGTYHNLFYGDGTQVVFTASADNKRKQIEEEKRKHPHPSYHGPYVFEPQQKKPMRVASDFVPSCAEPDRLRVDLRKKPVTKAKAEKSQKKKVTTK	not soluble
GPGSMRSVIRSCVIFPAAGVAMRHDSSQQWVLNVMYGTGLAPRYGSWKSFGVGDALKENDTPVLYCKALVHASGGGRRARDWVAGCSAALFPSYELLKIAMRHNSSEEDVERYRRHLVETLEKAQGPQTGSANDAGNVTSGEDGSKSDTENDTDINMRLSQMPEVRCFVYDAMRAACFHRYKKVPEEQRVKLFTVAARLGLDEGTTMAIWRLVEKEGIVARDKQRALESPWND	soluble
MGVSLAKGGNVSLSKEAPGLTAVLVGLGWDVRTTTGTDYDLDASALLLDTSGKVLSDGHFVFYNNLTSPDGSVEHTGDNLTGEGEGDDEAVKVNLVAVPAEVDRIVFPVSIHDAENRGQSFGQVRNAFIRVVNQANNQELARYDLSEDASTETAMVFGELYRHGAEWKFRAVGQGYASGLAGIAADFGVNV	not soluble
MGSDKIHHHHHHVKFFVIGDVTVDHLYHLDRLPAPGEEVAPTRATMKPGGAGGTISVTLARLGHSVTLAARVGDDPFAEYALASVRESGVLQAAIQIDPEHLTSTITVMQTPDGQRAMISDGAANRQLDPAKLKKKDIEGADALIVSAYSLTEGPQREYTLKAIETAKKAKKPVPVFIDLGTGAVNKVGTDLIENVIGADYLTLNQHELLALTDTTSISAALAQLGDAGARRVIVKVGRMGSIVWTPTETELVDPIKPEGRVVDSTGAGDTFTAAFAHAVLTGHSLPQAARIGNAAGALAATRVGAQARPITLADLEAALAR	not soluble
MSLSPPLTLNPEQAVAVASIFEHIHHYQCFLLQGVTGSGKTEVYLHVIAKILEQGKQVLVLVPEIGLTPQLLSRFTARFNHPITVLHSNLNESERQIAWQLAKENKVKMVIGTRSAVFTPLPNLGLIIIDEEHDSSLKQMEGVRYSARDTALMRAHLANIPIILGTATPSLETIHNCKQKKYNLLRLTHKAASTTPLHYQLIDLRSQMVQHGLALPTLKIIENHLLQQNQVLVFINRRGFAPVLLCHQCGWMVDCKACDSHLTLHKQAGQMICHHCGLTQRIPLFCNNCQSKELIPVGSGTQRIYEFLSHQFPDTNVLRIDRDEVRKKNSLNSHLDKINKGEAQLIIGTQMLAKGHHFPRLSLVVVVDADAGFYNQDFRAIEHLGQLLTQVSGRAGRAEHPGQVLIQTYLPDHPLLNLLIQHGYDEFANALLISRQEAEMPPFQFLAVIRAQGRTVSKVDQFLKATKDQIQAHPLTVLGPAPAPLPRKANQHRMQLLIKSPSRKVLKSSLTQLREWLTMNKLSNGIRWNVDVDPMDLSEGHHHHHH	not soluble
